Patent US20160002357A1 (Pfizer, published 2016)
Where a chain is given by its changes, count along the chain named.

B1: anti-P-cadherin scFv 153 alanine-mutant H1.1-Ala (scFv, V domains shown)
VH: EVQLVQSGAEVKKPGASVKVSCKASAYTFTSYGISWVRQAPGQGLEWMGWISAYNGNTNYAQKLQGRVTMTTDTSTSTAYMELRSLRSDDTAVYYCATIDTANAFGIWGQGTMVTVSS
VL: QSVLTQPPSVSAAPGQKVTISCSGSSSNIGNNYVSWYQQLPGTAPKLLIYDNNKRPSGIPDRFSGSKSGTSATLGITGLQTGDEADYYCGTWDSSLSGVVFGGGTKLTVL
notes: scFv on phage
B2: anti-P-cadherin scFv 153 alanine-mutant H2.15-Ala (scFv, V domains shown)
VH: B1 VH with A26G, L64A
VL: B1 VL
notes: scFv on phage
B3: anti-P-cadherin scFv 153 alanine-mutant H2.6-Ala (scFv, V domains shown)
VH: B1 VH with A26G, N55A
VL: B1 VL
notes: scFv on phage
B4: anti-P-cadherin scFv 153 alanine-mutant H2.2-Ala (scFv, V domains shown)
VH: B1 VH with A26G, I51A
VL: B1 VL
notes: scFv on phage
B5: anti-P-cadherin scFv 153 alanine-mutant H1.6-Ala (scFv, V domains shown)
VH: B1 VH with A26G, S31A
VL: B1 VL
notes: scFv on phage
B6: anti-P-cadherin scFv 153 alanine-mutant H1.9-Ala (scFv, V domains shown)
VH: B1 VH with A26G, I34A
VL: B1 VL
notes: scFv on phage
B7: anti-P-cadherin scFv 153 alanine-mutant H1.4-Ala (scFv, V domains shown)
VH: B1 VH with A26G, F29A
VL: B1 VL
notes: scFv on phage
B8: anti-P-cadherin scFv 153 alanine-mutant H2.11-Ala (scFv, V domains shown)
VH: B1 VH with A26G, Y60A
VL: B1 VL
notes: scFv on phage
B9: anti-P-cadherin scFv 153 alanine-mutant H2.8-Ala (scFv, V domains shown)
VH: B1 VH with A26G, N57A
VL: B1 VL
notes: scFv on phage
B10: anti-P-cadherin scFv 153 alanine-mutant H2.7-Ala (scFv, V domains shown)
VH: B1 VH with A26G, G56A
VL: B1 VL
notes: scFv on phage
B11: anti-P-cadherin scFv 153 alanine-mutant H2.5-Ala (scFv, V domains shown)
VH: B1 VH with A26G, Y54A
VL: B1 VL
notes: scFv on phage
B12: anti-P-cadherin scFv 153 alanine-mutant H1.7-Ala (scFv, V domains shown)
VH: B1 VH with A26G, Y32A
VL: B1 VL
notes: scFv on phage
B13: anti-P-cadherin scFv 153 alanine-mutant H1.5-Ala (scFv, V domains shown)
VH: B1 VH with A26G, T30A
VL: B1 VL
notes: scFv on phage
B14: anti-P-cadherin scFv 153 alanine-mutant H3.1-Ala (scFv, V domains shown)
VH: B1 VH with A26G, I99A
VL: B1 VL
notes: scFv on phage
B15: anti-P-cadherin scFv 153 alanine-mutant H2.10-Ala (scFv, V domains shown)
VH: B1 VH with A26G, N59A
VL: B1 VL
notes: scFv on phage
B16: anti-P-cadherin scFv 153 alanine-mutant H2.9-Ala (scFv, V domains shown)
VH: B1 VH with A26G, T58A
VL: B1 VL
notes: scFv on phage
B17: anti-P-cadherin scFv 153 alanine-mutant H3.3-Ala (scFv, V domains shown)
VH: B1 VH with A26G, T101A
VL: B1 VL
notes: scFv on phage
B18: anti-P-cadherin scFv 153 alanine-mutant H1.8-Ala (scFv, V domains shown)
VH: B1 VH with A26G, G33A
VL: B1 VL
notes: scFv on phage
B19: anti-P-cadherin scFv 153 alanine-mutant H2.13-Ala (scFv, V domains shown)
VH: B1 VH with A26G, Q62A
VL: B1 VL
notes: scFv on phage
B20: anti-P-cadherin scFv 153 alanine-mutant H2.14-Ala (scFv, V domains shown)
VH: B1 VH with A26G, K63A
VL: B1 VL
notes: scFv on phage
B21: anti-P-cadherin scFv 153 alanine-mutant H2.16-Ala (scFv, V domains shown)
VH: B1 VH with A26G, Q65A
VL: B1 VL
notes: scFv on phage
B22: anti-P-cadherin scFv 153 alanine-mutant H2.1-Ala (scFv, V domains shown)
VH: B1 VH with A26G, W50A
VL: B1 VL
notes: scFv on phage
B23: anti-P-cadherin scFv 153 alanine-mutant H2.17-Ala (scFv, V domains shown)
VH: B1 VH with A26G, G66A
VL: B1 VL
notes: scFv on phage
B24: anti-P-cadherin scFv 153 alanine-mutant H1.3-Ala (scFv, V domains shown)
VH: B1 VH with A26G, T28A
VL: B1 VL
notes: scFv on phage
B25: anti-P-cadherin scFv 153 alanine-mutant H3.2-Ala (scFv, V domains shown)
VH: B1 VH with A26G, D100A
VL: B1 VL
notes: scFv on phage
B26: anti-P-cadherin scFv 153 alanine-mutant H1.10-Ala (scFv, V domains shown)
VH: B1 VH with A26G, S35A
VL: B1 VL
notes: scFv on phage
B27: anti-P-cadherin scFv 153 alanine-mutant H1.2-Ala (scFv, V domains shown)
VH: B1 VH with A26G, Y27A
VL: B1 VL
notes: scFv on phage
B28: anti-P-cadherin scFv 153 alanine-mutant H2.3-Ala (scFv, V domains shown)
VH: B1 VH with A26G, S52A
VL: B1 VL
notes: scFv on phage

Biological target: T1, P-cadherin-ECD1-3-Fc protein (human P-cadherin-Fc) (human, UniProt P22223 108-440)
T1 construct: Construct was expressed with signal peptide and pro-peptide (PACE co-transfected to process the propeptide); not shown: hinge and CH2 and CH3 domains of human IgG1
T1 sequence (P22223 108-440): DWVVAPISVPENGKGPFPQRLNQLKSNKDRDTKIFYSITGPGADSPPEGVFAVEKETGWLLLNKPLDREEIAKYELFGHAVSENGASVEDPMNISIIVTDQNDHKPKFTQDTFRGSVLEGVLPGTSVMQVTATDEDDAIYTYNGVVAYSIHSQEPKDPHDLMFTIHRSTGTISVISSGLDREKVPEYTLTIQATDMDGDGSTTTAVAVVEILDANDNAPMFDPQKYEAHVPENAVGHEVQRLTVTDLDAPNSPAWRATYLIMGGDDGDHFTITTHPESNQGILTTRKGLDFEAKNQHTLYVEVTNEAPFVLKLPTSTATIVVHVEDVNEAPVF
Assay: phage scFv ELISA, coated P-cadherin-ECD1-3-Fc
Protocol: P-cadherin-ECD1-3-Fc protein or negative control protein was coated overnight at 4° C. on 96-well Nunc Maxisorp® plates (Thermo Fisher Scientific, Madison, Conn.) at a concentration of 2 μg/mL in PBS+Ca²⁺ and Mg²⁺. Plates were washed three times using PBS+Ca²⁺ and Mg²⁺ and blocked for 1 hour at room temperature in 3% milk/PBS+Ca²⁺ and Mg²⁺. Phage samples prepared as described above were added to the blocked plates for 1 hour at room temperature. Plates were washed three times with PBS+Ca²⁺ and Mg²⁺ prior to the addition of secondary antibody (anti M13-HRP 1:2000, GE Healthcare, Piscataway, N.J.). Plates were incubated for a further 1 hour at room temperature and washed six times with PBS+Ca²⁺ and Mg²⁺. Signal was developed using TMB (SurModics, Eden Prairie, Minn.), the reaction stopped with H₂SO₄ and the absorbance read at 450 nm on an EnVision® plate reader (Perkin Elmer, Waltham, Mass.).

Row | Binder | % of binding of Clone #153 to human P-cadherin-Fc [%] | Human P-cadherin-Fc binding (OD450) | Z Score
1 | B1 | 135 | 1.79 | 0.7
2 | B2 | 101 | 1.34 | 0
3 | B3 | 80 | 1.06 | -0.4
4 | B4 | 166 | 2.2 | 1.4
5 | B5 | 149 | 1.97 | 1
6 | B6 | 167 | 2.21 | 1.4
7 | B7 | 177 | 2.33 | 1.6
8 | B8 | 163 | 2.15 | 1.3
9 | B9 | 162 | 2.14 | 1.3
10 | B10 | 114 | 1.5 | 0.3
11 | B11 | 34 | 0.45 | -1.4
12 | B12 | 129 | 1.71 | 0.6
13 | B13 | 155 | 2.05 | 1.2
14 | B14 | 13 | 0.17 | -1.8
15 | B15 | 172 | 2.27 | 1.5
16 | B16 | 154 | 2.03 | 1.1
17 | B17 | 171 | 2.26 | 1.5
18 | B18 | 27 | 0.36 | -1.5
19 | B19 | 152 | 2.01 | 1.1
20 | B20 | 117 | 1.54 | 0.4
21 | B21 | 68 | 0.9 | -0.7
22 | B22 | 103 | 1.37 | 0.1
23 | B23 | 162 | 2.14 | 1.3
24 | B24 | 174 | 2.3 | 1.6
25 | B25 | 168 | 2.22 | 1.4
26 | B26 | 161 | 2.13 | 1.3
27 | B27 | 179 | 2.36 | 1.7
28 | B28 | 138 | 1.83 | 0.8
